Earlier results in publication PMC11054419.

What was measured:
TGF-β2 (Homo sapiens) = TGF-β2 (Homo sapiens) (UniProt P61812)
TGF-β1 (Homo sapiens) = TGF-β1 (Homo sapiens) (UniProt P01137)
TGF-β3 (Homo sapiens) = TGF-β3 (Homo sapiens) (UniProt P10600)

Measured: Kd

Chain of TβRIII (betaglycan) (Q03167 21-787): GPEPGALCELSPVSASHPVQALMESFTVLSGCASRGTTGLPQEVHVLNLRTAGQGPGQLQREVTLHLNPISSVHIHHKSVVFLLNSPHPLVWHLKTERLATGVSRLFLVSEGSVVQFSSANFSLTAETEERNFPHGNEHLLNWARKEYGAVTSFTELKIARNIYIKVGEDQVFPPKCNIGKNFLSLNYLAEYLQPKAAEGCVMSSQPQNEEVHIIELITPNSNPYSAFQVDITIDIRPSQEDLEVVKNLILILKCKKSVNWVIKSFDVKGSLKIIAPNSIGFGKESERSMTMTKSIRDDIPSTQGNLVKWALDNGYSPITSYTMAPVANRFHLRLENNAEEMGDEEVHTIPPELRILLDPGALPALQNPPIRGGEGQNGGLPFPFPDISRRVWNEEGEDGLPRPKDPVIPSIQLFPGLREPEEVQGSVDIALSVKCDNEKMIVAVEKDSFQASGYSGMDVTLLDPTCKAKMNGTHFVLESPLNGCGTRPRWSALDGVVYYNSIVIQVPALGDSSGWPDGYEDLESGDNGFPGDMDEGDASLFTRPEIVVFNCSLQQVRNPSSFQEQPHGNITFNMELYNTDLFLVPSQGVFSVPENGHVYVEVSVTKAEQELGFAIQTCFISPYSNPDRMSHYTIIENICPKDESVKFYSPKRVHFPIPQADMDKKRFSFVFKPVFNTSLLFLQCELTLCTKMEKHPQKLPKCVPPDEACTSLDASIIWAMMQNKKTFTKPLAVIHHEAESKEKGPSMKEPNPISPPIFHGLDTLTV
Chain of TGF-β3 (Homo sapiens) (P10600 301-412): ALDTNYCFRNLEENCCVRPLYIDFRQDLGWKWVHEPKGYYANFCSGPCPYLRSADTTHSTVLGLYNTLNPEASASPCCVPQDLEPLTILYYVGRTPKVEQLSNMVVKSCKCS
Chain of TGF-β1 (Homo sapiens) (P01137 279-390): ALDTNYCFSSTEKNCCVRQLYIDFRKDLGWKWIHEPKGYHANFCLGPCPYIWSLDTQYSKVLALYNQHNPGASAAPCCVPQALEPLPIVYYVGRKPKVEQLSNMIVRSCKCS
Chain of TGF-β2 (Homo sapiens) (P61812 303-414): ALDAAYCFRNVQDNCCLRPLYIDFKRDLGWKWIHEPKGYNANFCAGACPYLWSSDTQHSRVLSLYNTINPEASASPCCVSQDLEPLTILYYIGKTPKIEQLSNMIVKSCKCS

TβRIII (betaglycan) (from UniProt Q03167)
0.1 nM: all assays above
